Measurements: the nanobody polyreactivity screen of Harvey et al. (2022)

Assay: yeast display, Sf9 membrane polyspecificity reagent, FACS + sequencing; frameworks hold sequencing errors
Procedure, shortened: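 Sorting gates, low and high (top ~1%), were placed on anti-HA fluorescence to track expression and on streptavidin fluorescence to track reagent binding. A clone's polyreactivity label is taken from the gate it came out of. The reagent was 10% biotinylated, detergent-solubilized Sf9 membrane, applied for 1 hour at 4 °C to galactose-induced yeast display cells.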

Sequence	polyreactivity (PSR sort gate)
QVQLVESGGGLVQARGSLRLSCAASGGNISYNAMGRYRQAPGKEREFVASISSSGGRTYYADSVKGRFTISRDNAKNTVYLQMNSLKPEDTAVFYCNADAQVEYGLFGQGWVTSFDYWGEGTQVTVSS	low polyreactivity
QVQLVESGGGLVQAGGSLRLSCAASGSNITTYAMGWYRQAPGKERELVAAITDTSSTNYADSVKGRFTISRDNAKNTVYLQMNSLKPEVTAVYYCAVDLGYEYDWGQGTQVTVSS	low polyreactivity
QVQLVESGGGLVQAGGSLRLSCAASGSIFSQNAMGWYRQAPGKERELVAAITSSGGNTYADSVKGRFTISRDNAKNTVYLQMNRLKPEDTAVYYCAAGHLVILNRSEYYYWGQGTQVTVSS	low polyreactivity
QVQLVESGGGLVQAGGSLRLSCAASGTYTNAMGWYRQAPGKERELVAAISSTVGRTYYADSVKGRFTISRDNAKNPVYLQMNSLKPEDTAVYYCATTHGRTYYYWGQGTLVTVSS	high polyreactivity
QVQLQESGGGLVQAGGSLRLSCAASGYISYFVGMGWYRQAPGKEREFVASIADGSNTYYADSVKGRFTISRDNAKNTVYLQRNSLKPEDTAVYYCAVEDSWTYRFDYWGQGTQVTVSS	high polyreactivity
QVQLVESGGGLVQAGGSLRLSCAASGIIFSTYAMGWYRQAPGKERELVAAISVSGGRTYYADSVKGRFTISRDNAKNTVYLQMNSLKREDTAVYSCNALSSTEYDYWGQGTQVTVSS	high polyreactivity
QVQLEESGGGLVQAGGSIRLSCAASGRTIVYNAMGWYRQAPGNERELVDAIDGGGDRTYYADSVKGRFTISRDNAKITVYLQMNRLKPEDTAVYYCARDPGDTYYYSYPEGDYWGQGTQVSVSS	low polyreactivity
QVQLVESGGGLVQAGGSLRLSCAASGRILYRYVMGWYRQAPGKERELVAGISWSGGSTYYADSVKGRFTISRDNAKNTVYLQMNSLNPEDTAVYYCNKYIGALGRWGYDYWGQGTQVTVSS	low polyreactivity
QVQLVESGGGLVQAGGSLRLSCAASGSTFTGNAMGWYRQAPGKEREFVAAITYSGTRTNYADSVKGRFTISRDNAKNTVYLQMNSLKPEDTAVYYCAARFPWRRRYYYWGQGTQVTVSS	high polyreactivity
QFQLVDSGGGLVHAGGSRSLSCADSGLIFHNNAMGWYRQAPGKEREFVARITRSGGTTYYADSVKGRFTISRDNAKNTVYLQMNSLKPEDTAVYYCAAEQSVSFLVFTGFKFDYWGQGTHVTVSS	low polyreactivity
QVKRVESGGGLVHAGGSLRLSCPASGRTVAKYAMGGYRQEPGKARELVAAITSSGGITYYAESVQGRYTISRDNAKNIVYLQMNSLKREDTAFYYCAVKTFQVGTFRRYYYWGQGTQVTVSS	high polyreactivity
QVQLVESGGGLVQAGGSLRLSCAASGFIFGWSGMGWYRLAPGKERELVAAITGSGVRTYYAASVKGRFTISRDNAENTVYLQMNRLKPEDTAVYYCARAGGYVGRGYKDQDGRGDYGGQGTQVTVSS	high polyreactivity
QVQLVESGGGLVQAGGSLRLSCAASGRTFEYYAMGWYRQAPGKERELVASITSGGITNYADSVKGRFTISRDNAKNTVYLQMNSLKPEDTAVYYCNKRPWTRFDWGQGTQVTVSS	low polyreactivity
QVQLVESGGGLVQAGGSLRLSCAASGFIFRRYAMGWYRQAPGKERELVAAIRSDGSTNYADSVKGRFTISRDNAKNTVYLQMNSLKPEDTAVYDCAATYYSYTWFSQYYYWGQGTQVTVSS	high polyreactivity
QVQHVESGGGLVQAGGSLRLSCAASGFTFGYYAMGWYRQAPGKESELVAAIRSSGGSTYYADSVKGRFTISRDYAKNTDYLQMNSLKPEDSAVYYCAVLYGYLSSSRYGYDSWGKGTQVTVSS	high polyreactivity
QVQLVESGGGLVQAGGSLRLSCAASGFTFGVYAMGWYRQAPGKERELVAAISTTVGSTYYADSVKGRFTISRDNAKNTVYLEMNSLKPEDTAVYYCAAEYTGYINYYIYEYWGQGTQVTVSS	low polyreactivity
QVQLVESGGGLVQAGGSLRLSCAASGSIILRYAMGWYRQATGKERELVAAISNRGGSTYYADSVKGRFTISRDNAKNTVYLQMNSLKPEDTAVYYCAVRSTNERSAGKRRYYYWGQGTQVTVSS	high polyreactivity
QVQLVESGGGLVQAGGSLRLSCAASVIIFRQYAMGWSRQAPGKERELVAAISGSGGTTYYADSVKGRFTISRDNAKNTVYLQMNSLKPEDTAVYYCAADSSSRGRLDYWGQGTQVTVSS	high polyreactivity
QVQLVESRGGLVQAGGSLRLSCAASGSTLYQYAMGWYRQAPGKERELVAAITKSGGRTYYADSVKGRFTISRDNAKNTVYLHMNSLKPEDTAVYYCNVVRGSYSSGGDYWGQGTQVTVSS	high polyreactivity
QVQLVESGGGLVQAGGSLRLSCAASGSTLVGNAMGWYRQAPGKERELVATIDLSDDITYYADSVKGRFTISRDKAKNTVYLQMNSLKPEDTAVYYCAAEYYLYSTYTVSYWKYDYWGQGTQVTVSS	high polyreactivity
QVQLVESGGGLVQAGGSLRLSCAASGNSFSQYAMGWYRQAPGKERELVATISKSSGSTYYADSVKGRFTISRDNAKNTVYLQMNSLKPEDTAVYSCNAVSSDVYHHLGVLFFSTWYDYWGQGTQVTLSS	low polyreactivity
QVQLVESGGGLVQAGGSLRLSCAASGSTMDYNAMGWYRQAPGKERELVAAITNGGSTTYADSVKGRFTISRDNAKNTVYLQMNSLNPEDTAVYYCAAKWYPQLWFWKFLTYNYWGQGPQVTVSS	low polyreactivity

Sequence	polyreactivity (PSR sort gate)
QVQHVESGGGLVQAGGSLRLSCAASGIIITGNAMGWYRQAPGKERELVAAISTSGGRTYYADSVKGRFTISRDNAKNTVYLQMNSLKPEDTAVYYCAADDLSGTELYYWGQGTQVTVSS	high polyreactivity
QVQLVESGGGLVQAGGSLRLSCAASGSTFAEYVMGWYRQAPGKERELVAAISSGTSTYYADSVKGRFTISRDNAKNTVYLQMNSLKPEDTAVYYCNDDLYHTWYKPEYDYWGQGTQVTVSS	low polyreactivity
QVQLVESGGGLVQAGGSLRLSCAASGRIFGTNAMGWYRPAPGKERELVARITISTASTYYADSVKGRFTISRDNAKNTVSLQMNSLKPEDTAVYYCGVRWYIRSRPKVYKYDYWGQGTQVTVSS	high polyreactivity
QVQLVESGGGLVQAGGSLRLSCAPSGSIYTPYAMGWYRPAPGKLRELVADISRSGSTNYADSVKGRFTISLDNAKKTVYLQMNSLKPEDTAVYYCNADFWWHWGTSYDYWGQGTQVTVSS	high polyreactivity
QVQLVESGGGLVQAGGSLRLSCAASGFIIRTYAMGWYRQAPGKERELVAAITGRGGTTYYADSVKGRFTISRDNAKNTVDLQMNSLKPEDTAVYYCAARSRDYNYNPYDYWGQGTQVTVSS	high polyreactivity
QVQLVESGGGLVQAGGSLRLSCAASGRIIGLYAMGWYRQAPGKEMELVAAISSAGSTYYADSVKGRFTISRDNAKNTVYLQMNSLKTEDTAVYYCDKSRYRGYDYWGQGTQVTVSS	low polyreactivity
QVQLVESCGGLVQAGGSLRLSCAASGSTFTIYAMGWYRQAPGKERELVAVISSSGGSTYYADSVKGRFTISRDNAKNTVYLQMNSLKPEDTAVYYCAADTRYFGGYLTLYYWGQGTQVTVSS	low polyreactivity
QVKLVESGGGLVQAGCSLRLSCAASGRIYGGYTMGRYRPAPGKERELVAAITGSGGRTYFADSVKGRFTISRDNAKNTVYLHMNILTPEDTAVYYCNTVYPYRYYWGHGTQVTVSS	high polyreactivity
QVQLVESGGGLVQAGGSLRLSCAASGRIFHGYAMGWYRQAPGKERDLDAAISWRGDSTYYADSVKGRFTISRDNAKNTVYLQINSLKPEDTAVYYCAAASRSWRDDYWGQCTQVTVSS	low polyreactivity
QVQLVESGGGLVQAGGSLRLSCAASGFTFWRYAMAWYRQAPWKERDLVAAISRTGGRTYYADSVKGRFTISRDNAKNTVYLQMNSLKPEDTAVDYCAAVKYETYRYNYDYWGQGTQVTVSS	high polyreactivity
QVQLVESGGGLVQAGGSLRLSCAASGSNFKSYAKGWYRQAPGKERELVAAITYRGGSTYYADSVKGRFTISRDNAKNTVSLQMNSLKPEDTAVYYCAADYQSVGGAEYDYWGQGTQVTVSS	high polyreactivity
QVQLVESGGGLVHAGGSLRLSCAAAGSTFYYYAMGWYRQAPGKERELVARISDGDSTNYADSVKGRFTISRDNAKNTVYLQMNSLKPEDTAVYYCAAQHWYLGYGYWGQGTQVTVSS	low polyreactivity
QVQLVESGGGLVQAGGSLRLSCAAYGNTLDVNAMGWYRQAPGKERELVPAITSGGSTNYADSVKGRFTISRDNAKNTVYLQMNSLKPEDTAVYYCAKGSGVTYVTETLNTDYGYWGQGTQVTVSS	low polyreactivity
QVQLVESGGGLVQAGGRLRLSCAASGRIFSQYSMGWYRQAPGKERELVAAISSRGGRTYYADSVKGRFTFSRDNAKNTVYLQMNSLKPEDTAVYYCAAYVYPWGRDYWGQGTQVTVSS	high polyreactivity
QVQLVESGGGLVQAGGSLRLSCAASGFTFRAYVMGWDRQAPGKERELVASISKRGGNTYYADSVKGRFTISRDNAKNTVYLQMNSLKPEDTAVYYCAVDFFGDRGDYDYWGQGTQVTVSS	high polyreactivity
QVQLVESGGGLVQAGGSLRLSCAASGRTFYKNAMGWYRQATGKERELVARISRGGSTNYADSVKGRFTISRDNAKNTVYLQMNSLKPEDTAVYYCAKEYGTHGKTYDYWGQGTQVTVSS	high polyreactivity
QVQLVESGGGLVQAGGSLRLSCAASGFIFWPYAMGWYRQAPGKERELVAAITRSGGSTYYADSVKGRFTISRDNAKNTVYLQMNSLKPEDTAVYYCAARKRGTFTYDYWGQGTQVTVSS	high polyreactivity
QVQLVESGGGLVQAGGSLRLSCAASGLIFYHNARGWYRQAPGKERELVAAITASGGSTYYADSVKGRFTISRDNAKNTVYFQMNSLKPEDTAVYYCAADGPLDSDLDYWGQGTQVTVSS	low polyreactivity
QDQLVESGGGLVQAGGSLRLSCAASGRIFRGYAMGWYRQAHGKERELVAVISYSGTRTYYADSVKGRFTISRDNAKNTVYIQMNSLKPEDTAVYYCNARANGFKDGYWGEGTQVTVSS	high polyreactivity
QVQLVESGGGLVQAGGSLRLSCAASGFIFGYYAMGWYRQAPGKERELVAAITRSGGSTRYADSVKGRFTISRDKAKNTVYLQMNSLKPEDTAVYYCNAYAPRQLYGYDYWGQGTQVTVSS	high polyreactivity
QVQLVESGGGLVQAGGSLRLSCAASGSIFHYNTMGWYRQAPGKERELVAAITYSGGSTYYADSVKGRYTISRDNAKNPVYLQMNSLKPEDTAVYYCAVRGPGTSTYWYHEYEYWGQGTQVTVSS	high polyreactivity
